The values that follow come from article PMC2566858 (Nucleic Acids Research, 2008).

By Kd is commonly meant the free concentration of one partner at which half of the binding sites on the other are occupied at equilibrium, for simple one-to-one binding.

What all share (experiment): fluorescence anisotropy
In series [1] the target is T1, rGyr_hel (reverse gyrase helicase-like domain) (Thermotoga maritima, UniProt O51934 59-541).
T1 sequence: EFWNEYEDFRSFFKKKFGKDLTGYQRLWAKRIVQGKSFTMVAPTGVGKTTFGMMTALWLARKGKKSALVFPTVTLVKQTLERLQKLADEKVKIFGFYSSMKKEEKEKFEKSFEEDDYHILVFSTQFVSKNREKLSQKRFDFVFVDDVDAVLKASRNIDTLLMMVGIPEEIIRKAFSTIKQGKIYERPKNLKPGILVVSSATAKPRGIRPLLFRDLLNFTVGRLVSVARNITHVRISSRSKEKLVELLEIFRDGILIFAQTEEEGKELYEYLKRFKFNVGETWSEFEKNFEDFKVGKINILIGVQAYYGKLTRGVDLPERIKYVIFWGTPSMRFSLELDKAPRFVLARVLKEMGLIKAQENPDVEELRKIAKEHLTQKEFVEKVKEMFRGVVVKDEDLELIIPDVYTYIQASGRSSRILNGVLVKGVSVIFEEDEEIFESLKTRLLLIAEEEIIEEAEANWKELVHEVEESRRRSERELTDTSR

The target in series [2] is T1, rGyr_hel (reverse gyrase helicase-like …). The source holds these as a separate data set.
Series [3] shares this target. The source holds these as a separate data set.
Series [4] shares this target. The source holds these as a separate data set.
Series [5] shares this target. This is another data set of the same source.
For a further series, the target named is T2, rGyr_fl K106Q/Y851F (Thermotoga maritima, UniProt O51934 1-1104, K106Q;Y851F).
T2 sequence: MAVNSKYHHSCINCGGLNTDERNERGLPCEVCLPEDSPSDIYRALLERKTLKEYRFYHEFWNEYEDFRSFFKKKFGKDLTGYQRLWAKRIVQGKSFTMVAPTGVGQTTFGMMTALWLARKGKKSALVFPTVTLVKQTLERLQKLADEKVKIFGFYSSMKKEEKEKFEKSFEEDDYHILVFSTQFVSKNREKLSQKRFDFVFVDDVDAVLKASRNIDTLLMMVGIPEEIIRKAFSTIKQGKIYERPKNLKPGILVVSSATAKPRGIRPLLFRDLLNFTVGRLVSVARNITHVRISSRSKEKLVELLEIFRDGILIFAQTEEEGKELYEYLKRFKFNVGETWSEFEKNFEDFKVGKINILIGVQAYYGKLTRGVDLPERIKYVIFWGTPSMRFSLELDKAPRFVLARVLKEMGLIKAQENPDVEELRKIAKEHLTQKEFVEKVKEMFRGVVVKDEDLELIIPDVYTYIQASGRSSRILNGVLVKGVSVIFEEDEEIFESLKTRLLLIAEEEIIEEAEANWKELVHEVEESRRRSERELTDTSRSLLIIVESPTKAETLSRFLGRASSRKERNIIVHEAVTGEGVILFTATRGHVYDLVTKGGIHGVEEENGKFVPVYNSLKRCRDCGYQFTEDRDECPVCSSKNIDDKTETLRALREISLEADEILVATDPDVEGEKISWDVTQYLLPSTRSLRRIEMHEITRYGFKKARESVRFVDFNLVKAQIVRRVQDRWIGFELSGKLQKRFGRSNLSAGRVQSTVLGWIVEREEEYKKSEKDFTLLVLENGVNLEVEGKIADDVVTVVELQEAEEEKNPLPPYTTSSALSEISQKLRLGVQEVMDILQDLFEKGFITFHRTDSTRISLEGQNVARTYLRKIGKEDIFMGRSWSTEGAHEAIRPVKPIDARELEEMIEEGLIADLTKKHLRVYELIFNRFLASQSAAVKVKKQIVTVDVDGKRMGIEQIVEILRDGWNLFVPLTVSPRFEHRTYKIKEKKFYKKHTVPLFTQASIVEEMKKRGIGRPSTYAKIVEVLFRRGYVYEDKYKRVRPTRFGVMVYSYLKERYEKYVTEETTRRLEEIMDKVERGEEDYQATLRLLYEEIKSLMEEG

Where two headings read alike, the source gives them in different places.

B1: 60-base ssDNA (ssDNA)
DNA: AAGCCAAGCTTCTAGAGTCAGCCCGTGATATTCATTACTTCTTATCCTAGGATCCCCGTT
As to B1, the Kd stood at 280 ± 10 nM in series [1]; 330 ± 10 nM in series [2]; 920 ± 210 nM in series [3]; 200 ± 10 nM in series [4]; 2900 ± 100 nM in series [5].

B2: 60 bp dsDNA (dsDNA)
DNA 1: B1 DNA
DNA 2: AACGGGGATCCTAGGATAAGAAGTAATGAATATCACGGGCTGACTCTAGAAGCTTGGCTT
For the molecule B2, the Kd in the series with rGyr_fl K106Q/Y851F turned out to be 710 ± 110 nM.
